Data set [1] can be described thus: LogD determination of 68Ga-labeled MIUs and bioconjugates (water/1-octanol partition, γ-counter). The note with it: pH 7.4. The procedure:
Following the synthesis of the MIUs 6 a–13 a and the corresponding bioconjugates 6–13, the radiolabeling efficiency of the compounds with ^68Ga^3+ was investigated. […] In the following, we investigated the lipophilicity of the MIUs [^68Ga]6 a–[^68Ga]13 a and their bioconjugates [^68Ga]6–[^68Ga]13 (Table 1 and Figure 2 C,D).
A solution of the respective multimodal imaging unit (MIU) 6a – 13a (5 nmol) or multimodal imaging agent 6 - 14 (5 nmol) in H2O (Tracepur quality, 1mM) was added to 90 - 120 MBq of [68Ga]GaCl in a solution obtained by fractioned elution of an IGG 68Ge/68Ga generator system […]
with HCl (0.1 M, 1.6 mL) and subsequent titration to pH 3.5 – 4.2 by addition of sodium acetate solution (1.25 M, 50 – 75 µL). All labeling experiments were performed by addition of 2 mg ascorbic acid to suppress radiolysis-induced product fragmentation. In the labeling experiments of the MIUs 6a – 13a, 1 - 4 mg TCEP x HCl were added and the pH was adjusted to 3.5 – 4.2 by addition of sodium acetate solution (1.25 M). After reaction for 10 min at 45°C, the reaction mixtures were analyzed by analytical radio-HPLC.
For 68Ga-6/6a – 68Ga-13/13a, the water/1-octanol partition coefficient (log ) was determined by […]
adding 5 µL of the respectively 68Ga-labeled compound (0.8 – 1.2 MBq) to a mixture of phosphate buffer (0.05 M, pH 7.4, 795 µL) and 1-octanol (800 µL). The mixtures were intensively shaken for 5 minutes on a vibrating plate. After subsequent centrifugation at 13 000 rpm for 5 min, 125 µL were taken from each phase and measured in a γ-counter. The logD values were calculated from three or four independent experiments, each performed in triplicate.
For 14, the water/1-octanol partition coefficient (logD) was determined by semipreparative HPLC.
For this purpose, 10 µL solution (c = 5 x 10-4 mol/L) of the substance were added to a mixture of 1 mL 1-octanol and 990 µL phosphate buffered solution (0.05 M, pH 7.4) and the mixture was vigorously shaken for 5 minutes. After centrifugation, the phases were separated and both phases were analyzed by semipreparative HPLC. The logD was determined by three separate measurements, each experiment performed in triplicate.
(§1) Competitive receptor binding assay
(§2) Stably GRPR-transfected Human Embryonic Kidney 293 cells (HEK-GRPR) were cultured at 37°C in Dulbecco’s Modified Eagle’s Medium (DMEM, high glucose, GlutaMax-I, 500 mL) […]
(§3) a humidified atmosphere containing 5 % CO2. The medium was exchanged every two or three days and cells were split at >75 % confluence. In vitro binding affinities were determined via competitive displacement experiments which were performed at least trice, each experiment performed in triplicate. A Millipore Multiscreen punch kit and Millipore 96 well filter plates (pore size 1.2 µm) were used. The plates were incubated with PBS/BSA (1%) solution (each well 200 µL) for one hour before use. HEK-GRPR cells were harvested and suspended carefully in Opti- […]

In data set [2] the target is T1, gastrin-releasing peptide receptor (GRPR) (Homo sapiens, UniProt P30550).
T1 construct: host or cells: Human Embryonic Kidney 293 cells (HEK-GRPR)
T1 sequence (P30550 whole entry, species assumed): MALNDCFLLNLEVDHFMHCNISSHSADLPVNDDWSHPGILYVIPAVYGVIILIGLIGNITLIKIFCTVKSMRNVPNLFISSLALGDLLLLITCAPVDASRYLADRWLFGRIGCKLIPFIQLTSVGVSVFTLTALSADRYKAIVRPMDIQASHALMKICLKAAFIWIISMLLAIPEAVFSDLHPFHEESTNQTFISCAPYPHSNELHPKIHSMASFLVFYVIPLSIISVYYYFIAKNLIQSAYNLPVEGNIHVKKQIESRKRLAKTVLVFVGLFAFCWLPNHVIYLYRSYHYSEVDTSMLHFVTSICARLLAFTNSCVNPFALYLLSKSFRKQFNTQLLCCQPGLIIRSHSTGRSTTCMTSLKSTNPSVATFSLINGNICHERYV
Nature of the data set: Competitive displacement assay on stably GRPR-transfected HEK cells using [125I]-Tyr4-bombesin. The class given is binding. The note with it: [125I]-Tyr4-bombesin as competitor, 1 h, ambient temperature, read-out: IC50 (GRPR affinity). The procedure:
as §1, §2
as §3, with “Opti-MEM I (GlutaMAX I) medium. 50 µL of a cell suspension containing […] were seeded in each well. To this, a total volume of 50 µL was added to each well, containing 25 µL (0.012” for “Opti-”
The competitor was added in 11 increasing concentrations ranging from 0.25 – 500 nM for 6 – […]
binding of the radioligand. After one hour of incubation at ambient temperature, the solution was filtrated and the filters were washed with cold PBS (3 times). The filters were collected and […]

A short description of data set [3]: Photophysical properties (absorption and emission spectra in PBS). It counts as physicochemical. The following applies: for Log ϵ / Stokes shift / λ max: 1×10^−5 mol L^−1; for λem: 1×10^−5 mol L^−1, excitation wavelength λex=400 nm. The text has this: After studying the chemical and biological properties of the MIUs and their corresponding multimodal imaging agents, the photophysical properties of the substances were finally under investigation. Here, we found no significant decrease or shift of the optical and fluorescent characteristics of the bioconjugates compared to the MIUs (Table 2).
Fig. S27 Normalized absorption and emission spectra of 7 (left) and 7a (right), recorded in PBS
at a concentration of c = 1.0 x 10-5 mol/L, emission wavelength stated in the graph (bottom, left
Fig. S28 Normalized absorption and emission spectra of 8 (left) and 8a (right), recorded in PBS
Fig. S29 Normalized absorption and emission spectra of 9 (left) and 9a (right), recorded in PBS […]
Fig. S30 Normalized absorption and emission spectra of 10 (left) and 10a (right), recorded in
PBS at a concentration of c = 1.0 x 10-5 mol/L, emission wavelength stated in the graph (bottom,
Fig. S31 Normalized absorption and emission spectra of 11 (left) and 11a (right), recorded in
Fig. S32 Normalized absorption and emission spectra of 12 (left) and 12a (right), recorded in […]

Each structure is given as a SMILES string.

As a reminder, the logD is lipophilicity at a set pH, counting ionised and neutral species. The low end stands for lower lipophilicity, the high end for higher lipophilicity. What is called IC50 is the concentration needed to halve the response being measured. In turn, `CSCC[C@H](NC(=O)[C@H](CC(C)C)NC(=O)[C@H](Cc1c[nH]cn1)NC(=O)CNC(=O)[C@@H](NC(=O)[C@H](C)NC(=O)[C@H](Cc1c[nH]c2ccccc12)NC(=O)[C@H](CCC(N)=O)NC(=O)CCOCCOCCOCCOCCNC(=O)CON=Cc1ccc(C(=O)NCCCN(CCCNC(=O)c2ccc(C=NOCC(=O)NCCOCCOCCOCCOCCC(=O)N[C@@H](CCC(N)=O)C(=O)N[C@@H](Cc3c[nH]c4ccccc34)C(=O)N[C@@H](C)C(=O)N[C@H](C(=O)NCC(=O)N[C@@H](Cc3c[nH]cn3)C(=O)N[C@@H](CC(C)C)C(=O)N[C@@H](CCSC)C(N)=O)C(C)C)cc2)CC(=O)N[C@H](CSC2CC(=O)N(CCN3C(=O)CC(SC[C@H](NC(=O)[C@H](CCCC[n+]4c(C)cc(/C=C/c5ccc(N(C)C)cc5)cc4C)NC(=O)CC[C@H](C(=O)O)N4CCN(CC(=O)O)CCN(CC(=O)O)CC4)C(N)=O)C3=O)C2=O)C(=O)NCCOCCOCC(N)=O)cc1)C(C)C)C(N)=O` (stereo partly shown) [Compound 7] had a logD in data set [1] of -2 ± 0.01. For the same compound, in data set [2], the IC50 stood at 0.0165 ± 0.00025 µM. In addition, in data set [3], the “Log ϵ” value is on record as 4.23 M ^−1 cm^−1, the Stokes shift is reported as 140 nm, the λ max is listed as 460 nm and the λem is recorded as 600 nm.
In data set [1], `CSCC[C@H](NC(=O)[C@H](CC(C)C)NC(=O)[C@H](Cc1c[nH]cn1)NC(=O)CNC(=O)[C@@H](NC(=O)[C@H](C)NC(=O)[C@H](Cc1c[nH]c2ccccc12)NC(=O)[C@H](CCC(N)=O)NC(=O)CCOCCOCCOCCOCCNC(=O)CON=Cc1ccc(C(=O)NCCCN(CCCNC(=O)c2ccc(C=NOCC(=O)NCCOCCOCCOCCOCCC(=O)N[C@@H](CCC(N)=O)C(=O)N[C@@H](Cc3c[nH]c4ccccc34)C(=O)N[C@@H](C)C(=O)N[C@H](C(=O)NCC(=O)N[C@@H](Cc3c[nH]cn3)C(=O)N[C@@H](CC(C)C)C(=O)N[C@@H](CCSC)C(N)=O)C(C)C)cc2)CC(=O)N[C@H](CSC2CC(=O)N(CCN3C(=O)CC(SC[C@H](NC(=O)[C@H](CCCC[n+]4c(C)cc(/C=C/C=C/c5ccc(N(C)C)cc5)cc4C)NC(=O)CC[C@H](C(=O)O)N4CCN(CC(=O)O)CCN(CC(=O)O)CC4)C(N)=O)C3=O)C2=O)C(=O)NCCOCCOCC(N)=O)cc1)C(C)C)C(N)=O` (stereo partly shown) [Compound 8] came in with a logD of -1.73 ± 0.2. Also, the half-inhibitory concentration (IC50) in data set [2] turned out to be 0.0155 ± 0.00076 µM. In data set [3], the “Log ϵ” value is listed as 4.16 M ^−1 cm^−1, the Stokes shift amounted to 230 nm, the λ max worked out at 470 nm and the λem worked out at 700 nm.
`CSCC[C@H](NC(=O)[C@H](CC(C)C)NC(=O)[C@H](Cc1c[nH]cn1)NC(=O)CNC(=O)[C@@H](NC(=O)[C@H](C)NC(=O)[C@H](Cc1c[nH]c2ccccc12)NC(=O)[C@H](CCC(N)=O)NC(=O)CCOCCOCCOCCOCCNC(=O)CON=Cc1ccc(C(=O)NCCCN(CCCNC(=O)c2ccc(C=NOCC(=O)NCCOCCOCCOCCOCCC(=O)N[C@@H](CCC(N)=O)C(=O)N[C@@H](Cc3c[nH]c4ccccc34)C(=O)N[C@@H](C)C(=O)N[C@H](C(=O)NCC(=O)N[C@@H](Cc3c[nH]cn3)C(=O)N[C@@H](CC(C)C)C(=O)N[C@@H](CCSC)C(N)=O)C(C)C)cc2)CC(=O)N[C@H](CSC2CC(=O)N(CCN3C(=O)CC(SC[C@H](NC(=O)[C@H](CCCCNS(=O)(=O)c4cccc5c(N(C)C)cccc45)NC(=O)CC[C@H](C(=O)O)N4CCN(CC(=O)O)CCN(CC(=O)O)CC4)C(N)=O)C3=O)C2=O)C(=O)NCCOCCOCC(N)=O)cc1)C(C)C)C(N)=O` (stereo partly shown) [Compound 9] came in with a log distribution coefficient (logD) in data set [1] of -1.59 ± 0.06. Moreover, the IC50 in data set [2] was 0.0262 ± 0.00089 µM. The λem in data set [3] stood at 540 nm.
Take `CSCC[C@H](NC(=O)[C@H](CC(C)C)NC(=O)[C@H](Cc1c[nH]cn1)NC(=O)CNC(=O)[C@@H](NC(=O)[C@H](C)NC(=O)[C@H](Cc1c[nH]c2ccccc12)NC(=O)[C@H](CCC(N)=O)NC(=O)CCOCCOCCOCCOCCNC(=O)CON=Cc1ccc(C(=O)NCCCN(CCCNC(=O)c2ccc(C=NOCC(=O)NCCOCCOCCOCCOCCC(=O)N[C@@H](CCC(N)=O)C(=O)N[C@@H](Cc3c[nH]c4ccccc34)C(=O)N[C@@H](C)C(=O)N[C@H](C(=O)NCC(=O)N[C@@H](Cc3c[nH]cn3)C(=O)N[C@@H](CC(C)C)C(=O)N[C@@H](CCSC)C(N)=O)C(C)C)cc2)CC(=O)N[C@H](CSC2CC(=O)N(CCN3C(=O)CC(SC[C@H](NC(=O)[C@H](CCCCNc4ccc([N+](=O)[O-])c5nonc45)NC(=O)CC[C@H](C(=O)O)N4CCN(CC(=O)O)CCN(CC(=O)O)CC4)C(N)=O)C3=O)C2=O)C(=O)NCCOCCOCC(N)=O)cc1)C(C)C)C(N)=O` (stereo partly shown) [Compound 10]: the logD in data set [1] was -1.42 ± 0.24. Besides, in data set [3], the “Log ϵ” value is 4.10 M ^−1 cm^−1, the λ max is reported as 490 nm and the λem stood at 545 nm.
In data set [1], `CSCC[C@H](NC(=O)[C@H](CC(C)C)NC(=O)[C@H](Cc1c[nH]cn1)NC(=O)CNC(=O)[C@@H](NC(=O)[C@H](C)NC(=O)[C@H](Cc1c[nH]c2ccccc12)NC(=O)[C@H](CCC(N)=O)NC(=O)CCOCCOCCOCCOCCNC(=O)CON=Cc1ccc(C(=O)NCCCN(CCCNC(=O)c2ccc(C=NOCC(=O)NCCOCCOCCOCCOCCC(=O)N[C@@H](CCC(N)=O)C(=O)N[C@@H](Cc3c[nH]c4ccccc34)C(=O)N[C@@H](C)C(=O)N[C@H](C(=O)NCC(=O)N[C@@H](Cc3c[nH]cn3)C(=O)N[C@@H](CC(C)C)C(=O)N[C@@H](CCSC)C(N)=O)C(C)C)cc2)CC(=O)N[C@H](CSC2CC(=O)N(CCN3C(=O)CC(SC[C@H](NC(=O)[C@H](CCCCNC(=O)c4cc5cc6c7c(c5oc4=O)CCCN7CCC6)NC(=O)CC[C@H](C(=O)O)N4CCN(CC(=O)O)CCN(CC(=O)O)CC4)C(N)=O)C3=O)C2=O)C(=O)NCCOCCOCC(N)=O)cc1)C(C)C)C(N)=O` (stereo partly shown) [Compound 12] registered a logD of -1.72 ± 0.13. Moreover, in data set [2], the half-maximal inhibitory concentration (IC50) worked out at 0.0209 ± 0.00167 µM. In addition, in data set [3], the “Log ϵ” value came out at 4.30 M ^−1 cm^−1, the Stokes shift turned out to be 40 nm, the λ max came out at 455 nm and the λem was 495 nm.

These data come from paper PMC7756681, “Functional Hybrid Molecules for the Visualization of Cancer: PESIN‐Homodimers Combined with Multimodal Molecular Imaging Probes for Positron Emission Tomography and Optical Imaging: Suited for Tracking of GRPR‐Positive Malignant Tissue” (Chemistry (Weinheim an Der Bergstrasse, Germany), 2020).
